Data set [1] concerns the molecule itself. Put plainly: SEC-MALS; single purified protein; 50 uL at 2 mg/mL on a WTC 015S5 column, 50 mM HEPES, 150 mM NaCl, 200 mM arginine, 1 mM TCEP, pH 8.0, 0.8 mL/min. (In general: SEC sorts molecules by how far they enter the pores of the column.)
The target in data set [2] is T1, periplasmic N-domain of RcpA (RcpAN) (Pseudomonas aeruginosa, UniProt Q9HW96 28-115).
T1 construct: RcpA outer membrane secretin, Pseudomonas aeruginosa, periplasmic N-domain (9.7 kDa, small globular Ig domain fold); Gene codon optimised, in pET28a; also called His-RcpAN; His-RspAN; source: E. coli BL21 (DE3), purified (Ni-NTA, SEC); also co-expressed with RcpC constructs and co-purified
T1 sequence: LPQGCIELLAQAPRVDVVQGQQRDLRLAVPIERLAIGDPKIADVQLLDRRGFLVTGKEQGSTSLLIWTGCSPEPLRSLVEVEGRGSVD
Description: SEC-MALS; co-expressed (two plasmids) and co-purified RcpC_(33-303)-RcpAN complex; 50 uL at 2 mg/mL on a WTC 015S5 column, 50 mM HEPES, 150 mM NaCl, 200 mM arginine, 1 mM TCEP, pH 8.0. The following applies: both partners purified.

In general, stoichiometry N refers to the number of molecules, sites or subunits per partner or assembly.

B1: RcpC periplasmic domain (RcpC_(33-303)) (domain or fragment)
chain: NAHAPSVAPASATVDASLEKLERKPVLVASRDLPALAVIGRDDLSVELLRTAPVGSYDRPEALLGKRVWVAVPAGSILSAATLEPGGPLARTIRPDERAMAIAVDEVVGGGGFVLPGDYVDVMLFVRDERDGESTPLAQLVLPGVRVLTYGERIAVGSDGQDRSNQEKDPRPPRTAVLAVPEDGVARLMLASQAGSLRLAIRSKDEELYRREQEGALLQASLGAPSAALSLDQLLERRKPTAPSVRSAAPRVPVANGVTVYRGSAMTHEAP
notes: RcpC, Pseudomonas aeruginosa, residues 33-303 of the full-length protein (RcpC_(1-303)); lacks the N-terminal transmembrane helix; holds D1, D2, linker L3 and the C-terminal β-hairpin; Gene codon optimised, in pET21a; also called RcpCΔN; periplasmic region of RcpC; source: E. coli BL21 (DE3), purified (Ni-NTA, SEC); also co-expressed with RcpAN and co-purified; not shown: His tag (from the Ni-NTA …)
On to B1, for which the “stoichiometry N” value in data set [1] is 12 copies; in data set [2], 2 RcpC per RcpA (12:6 RcpC:RcpA).

(Values after PMC12307814, “The structure of the Tad pilus alignment complex reveals a periplasmic conduit for pilus extension” (Nature Communications, 2025).)
